Reference: US20110165265A1, “TRAIL VARIANTS FOR TREATING CANCER” (FUNDACIÓ GENÒMICA (CRG), priority 2007, published 2011)
“Also recorded” adds a separate entry of the source.

T1: DcR2 (Homo sapiens, UniProt Q9UBN6)
T1 construct: soluble, recombinant DcR1-Ig (sDcR1) and DcR2-Ig (sDcR2); purchased R&D Systems
T1 sequence (Q9UBN6 56-211 limits assumed): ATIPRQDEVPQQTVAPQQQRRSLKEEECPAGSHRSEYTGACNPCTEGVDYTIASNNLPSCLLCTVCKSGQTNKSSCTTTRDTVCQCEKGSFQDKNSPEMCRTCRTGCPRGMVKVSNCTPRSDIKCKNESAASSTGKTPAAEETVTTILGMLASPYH

B1: D269HE195R: rhTRAIL (114-281) carrying mutations D269H and E195R; DR5-selective TRAIL variant (protein)
chain: MVRERGPQRVAAHITGTRGRSNTLSSPNSKNEKALGRKINSWESSRSGHSFLSNLHLRNGELVIHEKGFYYIYSQTYFRFQERIKENTKNDKQMVQYIYKYTSYPDPILLMKSARNSCWSKDAEYGLYSIYQGGIFELKENDRIFVSVTNEHLIDMHHEASFFGAFLVG
B2: wtTRAIL: wild-type soluble recombinant human TRAIL, amino acids 114-281 (SEQ ID NO: 3) (protein, listed as Homo sapiens)
chain: MVRRGRVAAHTGTRGRSNTSSNSKNKAGRKNSWSSRSGHSSNHRNGVHKGYYYSTYRKNTKNDKMVYYKYTSYDMKSARNSCWSKDAYGYSYGGKNDRVSVTNHDMDHASGAVG
modifications: TRAIL 114-281

What was measured:
Colo205 cells [1] = assay: Colo205 apoptosis after neutralizing antibodies to DcR1 and DcR2; format: cell-based, human; details: for dose that induced approximately 50% cell death: Annexin V
Description: All graphs are representatives of two independent repeats. […] Induction of apoptosis was measured 3 h post-treatment using Annexin V assay. […] The graphs show the average±SEM of three independent experiments.
Apoptotic cell death was measured 3 h post-treatment using staining Annexin V assay (FIG. 15), as described above. Increase in apoptosis was expressed as fold increase compared to the level of apoptosis caused by the ligands alone, in the absence of the neutralizing antibodies.

Colo205 cells [2] = assay: Colo205 apoptosis after pre-incubation of ligand with soluble receptor-Ig; format: cell-based, human; details: 10 ng/ml ligand; for effect of pre-incubation with sDcR1 on pro-apoptotic activity: sDcR1 up to 2 μg/ml
Description: (A) Effect of soluble recombinant DcR1-Ig (sDcR1) on apoptosis induction by TRAIL and DR5-selective variants. […] All graphs are representatives of two independent repeats. (D) Neutralizing antibodies against DcR1 and DcR2 can augment wtTRAIL- but not DR5-variant induced cell death. […] Induction of apoptosis was measured 3 h post-treatment using Annexin V assay. […] The graphs show the average±SEM of three independent experiments.
Induction of cell death was assessed by Annexin V assay 3 h after treatment (FIG. 14), as described above. […] (FIG. 14C). This confirms that the observed differences in blocking efficacy are due to reduced ability of the decoy receptors to bind and inhibit D269H and D269HE195R.

A2780 cells [3] = assay: Annexin V apoptosis assay in A2780; format: cell-based, human
A2780 cells [4] = assay: Microculture tetrazolium cytotoxicity assay in A2780; format: cell-based, human; details: A2780, 96 h
Description: The microculture tetrazolium assay, performed as described earlier^36, was used to measure cytotoxicity. […] In cell viability assays assessing combination treatment with cisplatin, the cells were pre-incubated for 4 h (h) with 2.5 μM cisplatin (inhibitory concentration 20%-IC20), before addition of 0-25 ng/ml TRAIL or TRAIL-DR5.

A2780 cells [5] = assay: Caspase-3 activity and acridine orange apoptosis assays in A2780; format: cell-based, human; details: for effect of DcR2 blocking antibody on apoptosis induction: A2780; for effect of DR5 siRNA on induced apoptosis: A2780, also with cisplatin
Colo205 tumors = Colo205 tumors in athymic nude mice; format: in vivo; details: for anti-tumor effect, single therapy: 1 and 5 mg/kg IP
Description: The anti-tumor effect of rhTRAIL WT and D269HE195R was tested in a small number of athymic nude mice carrying a tumor of Colo205 cells (n=3 to 5 per group). The rhTRAIL proteins were tested in doses of 1 and 5 mg/kg, given by intraperitoneal injections for 2×5 days (day 1-5 and 8-12) with a daily doses of aspirin (in the same syringe as protein).
In a third study the combination between TRAIL and aspirin was tested. […] Both were tested in doses of 1 and 5 mg/kg, given by intraperitoneal injections for 2×5 days (day 1-5 and 8-12) with daily doses of aspirin (in the same syringe as protein). Data is only presented until day 13, because of too many fluctuations and mice dying after this day.

Colo205 cells [6] = assay: Cell survival / sensitivity of Colo205; format: cell-based
Description: (B) Effect of increasing concentrations of Aspirin on cell viability. (C) Effect of increasing concentrations of 5-Flurouracil on cell viability. (D) Combination therapy with 5 mM Aspirin pre-incubated for 24 h lead to further decreases in cell viability in cells treated with both TRAIL and two of the DR5 mutants. (E) 30 minute incubation of DR5 mutants, were sufficient decrease cell viability which was further augmented when cells were pre-incubated for 24 h with Aspirin. The shorter incubation period lead to a decrease potency of TRAIL alone or in combination with Aspirin. […] (G) 30 min incubation of the DR5 mutant was sufficient to decrease cell viability which was not enhanced by 5-Flurouracil, and once again the decease potency of TRAIL is seen. Proteins are indicated as follows: TRAIL stands for rhTRAIL WT; D269H stands for rhTRAIL carrying mutation D269H; E195R stands for rhTRAIL carrying mutations D269H and E195R; and M1 stands for rhTRAIL carrying mutations D269H, E194I and I196S.
TRAIL-induced cell death as a function of concentration was measured with the MTS assay.

LoVo cells = assay: Cell survival / sensitivity of LoVo; format: cell-based
Text: C) Effect of increasing concentration of 5-Flurouracil on Lovo cells.

Caski cells = assay: Cell survival / sensitivity of Caski; format: cell-based
[7] = test system: HCT15, HT29 and RKO cells; assay: Cell survival of HCT15, HT29 and RKO; format: cell-based
DR4 = target: T2, DR4 (Homo sapiens, UniProt O00220); details: cited from earlier work
T2 construct: the more commonly used dimeric TRAIL-receptor-IgG Fc chimeric constructs

DcR2 = target: T1, DcR2; details: cited from earlier work
A2780-Luc xenografts = assay: IP A2780-Luc xenografts, bioluminescence imaging; details: for mean signal reduction as to vehicle treated mice: day 16, IP treatment; for light emission (bioluminescent signal): day 16, mean±SEM; for median survival: surrogate endpoint signal ≧3.1×10^8
Description: Visualization of response to TRAIL, TRAIL-DR5, cisplatin and to the combination of either ligand with cisplatin by means of bioluminescence imaging. Nude mice were inoculated IP with 2×10^6 A2780-Luc cells. After 5 days treatment was initiated; cisplatin (4 mg/kg IP) or vehicle at day 5 and 12, TRAIL, TRAIL-DR5 (5 mg/kg IP) or vehicle at day 5-10 and 12-16, or a combination of TRAIL or TRAIL-DR5 with cisplatin.
Female nude mice (Hsd:Athymic Nude-nu) were obtained from Harlan Nederland (Horst, The Netherlands) at 6-8 weeks of age (˜21 g). Inoculation was performed after 10 days of acclimatization.
Imaging was conducted with the IVIS 100 series (Xenogen Corporation Alameda, Calif.), composed of a cooled charge-coupled device camera connected to a light tight black chamber. Before in vivo imaging animals were anesthetized with 4% isoflurane and injected IP with D-luciferin (150 mg/kg, Xenogen) reconstituted in sterile PBS. Mice were placed in prone position on a warmed stage (37° C.) in the imaging chamber, and grayscale reference images were obtained under dim illumination. Pseudocolor images representing bioluminescent intensity were acquired with Livinglmage software (version 2.50, Xenogen) 10 and 15 min after D-luciferin injection in complete darkness. These images were superimposed on the grayscale images for analysis with Igor Pro software (version 4.09, WaveMetrics, Lake Oswego, Oreg.). All bioluminescence imaging (BLI) data are depicted in radiance units (photons/sec/cm^2/sr) enabling absolute comparisons between bioluminescent images and represent final data obtained after subtraction of the background signal.

[8] = lowest dose 1 mg/kg + 200 mg/kg aspirin

T2 sequence (O00220 24-239 limits assumed): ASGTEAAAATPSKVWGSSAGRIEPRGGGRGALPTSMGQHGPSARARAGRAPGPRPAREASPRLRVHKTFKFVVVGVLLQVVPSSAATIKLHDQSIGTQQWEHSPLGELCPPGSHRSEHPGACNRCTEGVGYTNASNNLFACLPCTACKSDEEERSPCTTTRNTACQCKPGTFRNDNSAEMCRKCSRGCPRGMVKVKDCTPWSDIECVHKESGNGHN

Molecule | apoptosis rate enhancement with neutralizing antibodies to both DcR1 and DcR2 (Colo205 cells [1]; Colo205) | fold increase in apoptosis with DcR1 neutralising antibody (Colo205 cells [1]; Colo205, 3 h) | dose that induced approximately 50% cell death (Colo205 cells [1]; Colo205, 3 h) [ng/mL] | effect of pre-incubation with sDcR2 on apoptosis induction (Colo205 cells [2]) | effect of pre-incubation with sDcR1 on pro-apoptotic activity (Colo205 cells [2]) | cell survival / viability (A2780 cells [4]) | effect of DcR2 blocking antibody on apoptosis induction (A2780 cells [5]) | effect of DR5 siRNA on induced apoptosis (A2780 cells [5]) | effect of combination with aspirin (Colo205 tumors; 5 mg/kg + 200 mg/kg aspirin) | effect of combination with aspirin (Colo205 tumors; [8]) | effect of 5-FU and Aspirin on induced apoptosis (Colo205 cells [6]; Colo205) | cell viability, single agent (LoVo cells) | effect of 5-FU and Aspirin on induced apoptosis (LoVo cells) | cell viability, single agent (Caski cells) | effect of combination with bortezomib (Caski cells) | cell viability with or without 5-Flurouracil [7] | mean signal reduction as to vehicle treated mice (A2780-Luc xenografts) [%] | light emission (bioluminescent signal) (A2780-Luc xenografts) | median survival (A2780-Luc xenografts) [days] | other results
B1 | not affected | no increase in apoptosis | ~4 | no complete protection could be achieved | failed to reduce | decreased cell survival more effectively than TRAIL | did not enhance apoptosis induction | completely protected | not visible | additive effect | enhanced apoptosis | equal decrease in cell viability | enhanced apoptosis | comparable | increased tumor cell death | equal decrease in cell viability | 68.3 | 1.4×10^8±1.3×10^7 radiance units | 21 | fold increase in apoptosis with DcR2 neutralising antibody (Colo205 cells [1]; Colo205, 3 h): no increase of apoptosis; also recorded: no increase in apoptosis; fold increase in apoptosis with neutralizing antibodies to both DcR1 and DcR2 (Colo205 cells [1]; Colo205, 3 h): not and not affected; apoptosis (A2780 cells [3]; A2780, 10 ng/ml, Annexin V): 30.6±2.5%; anti-tumor effect, single therapy (Colo205 tumors; listed as TRAIL-DR5): nice response; anti-tumor effect, single therapy (Colo205 tumors; listed as mutant TRAIL): reduces the tumor growth; also recorded: some positive effect on the tumor growth; cell viability, single agent (Colo205 cells [6]; Colo205): significantly less cell viability than TRAIL; sensitivity, single agent comparison (Colo205 cells [6]; Colo205): higher sensitivity; efficient concentration compared to wtTRAIL (Colo205 cells [6]; Colo205, MTS dose-response): efficient at a several fold lower concentration than needed for wtTRAIL; sensitivity, single agent comparison (LoVo cells): higher sensitivity; binding to DR4 (DR4; earlier work referred to): virtually absent; affinity for DcR2 (DcR2; earlier work referred to): reduced
B2 | 1.5±0.1 fold | 1.5 fold | ~20 | able to block apoptosis induction | completely blocked | dose dependent loss of viability | did not enhance apoptosis induction | completely protected | additive effect | additive effect | enhanced apoptosis | equal decrease in cell viability | enhanced apoptosis | comparable | increased tumor cell death | equal decrease in cell viability | 48.8 | 2.3×10^8±3.1×10^7 radiance units | 21 | reduction of apoptosis-inducing potential in the presence of the decoy receptors (Colo205 cells [1]; Colo205): approximately 40%; effect of pre-incubation with soluble DR5 on pro-apoptotic activity (Colo205 cells [2]): completely block; cell death (A2780 cells [3]; A2780, highest concentration tested 250 ng/ml): ≤ 24.3±4.5%; Kd (DR4; surface plasmon resonance, read-out: binding affinity Kd for DR4): 2.5 nM; Kd (DcR2; surface plasmon resonance, read-out: binding affinity Kd for DcR2): ~8 nM
